Test [1] concerns the target T1, protein A (UniProt P38507 37-327).
T1 construct: Immobilised on resin; also called rProtein A Sepharose Fast Flow column (GE Healthcare); HiTrap protein A HP column (GE Healthcare)
Description: rProtein A Sepharose Fast Flow column, stepwise pH elution; fractions analysed by cation exchange chromatography.
Description: The CM samples were filtered through a filter with a pore size of 0.22 μm, and loaded onto an rProtein A Sepharose Fast Flow column (GE Healthcare) equilibrated with D-PBS. The volume of CM to be loaded onto the column was adjusted to 20 mg antibody/ml resin. Fractions eluted under each condition were collected, and the respective eluted fractions were analyzed by cation exchange chromatography to identify their components. To prepare controls, each CM was loaded onto rProtein G Sepharose Fast Flow resin (GE Healthcare). Samples purified by batchwise elution were used as controls. Since protein G binds to the Fab domain of an antibody, all antibody species (a bispecific antibody of interest in which two types of H chains are associated in a heteromeric manner (heteromeric antibody) and as an impurity monospecific homomeric antibodies in which single-type H chains are homomerically associated) in CM can be purified by using protein G, regardless of their protein A-binding affinity.

Test [2] deals with T1, protein A. As to the kind of experiment: rProtein A Sepharose Fast Flow column, elution at pH 3.6; cation exchange analysis.
Description: (§1) The CM samples were filtered through a filter with a pore size of 0.22 μm, and loaded onto an rProtein A Sepharose Fast Flow column (GE Healthcare) equilibrated with D-PBS. […] The volume of CM to be loaded onto the column was adjusted to 20 mg antibody/ml resin. Respective fractions eluted under each condition were collected and analyzed by cation exchange chromatography to identify their components. […] Samples purified by batchwise elution were used as controls.
The target of test [3] is T1, protein A. Description: rProtein A Sepharose Fast Flow column, elution at pH 3.6 and 2.7; cation exchange analysis.
Description: as §1
For test [4], the target named is T1, protein A. Description: HiTrap protein A HP column, pH gradient elution; size exclusion analysis. In general terms: In gel filtration, larger molecules generally elute earlier.
Description: The CM samples were filtered through a filter with a pore size of 0.22 μm, and loaded onto a HiTrap protein A HP column (GE Healthcare) equilibrated with D-PBS. […] Eluted fractions were collected and analyzed by size exclusion chromatography analysis to identify their components.
The target in test [5] is T1, protein A. As to the kind of experiment: HiTrap protein A HP column, pH gradient elution.
Description: CM samples were filtered through a filter with a pore size of 0.22 μm and loaded onto a HiTrap protein A HP column (GE Healthcare) equilibrated with D-PBS. The column was sequentially subjected to washes 1 and 2 and elution with a pH gradient using elution A and B as shown in Table 18.

Consider five molecules from patent publication US20260217760A1 (Chugai, published 2026).

Substitutions are numbered along the chain they refer to.

B1: J142-z72/L180-k (antibody, human IgG4 S228P, kappa)
heavy: QVQLVQSGSELKKPGASVKVSCKASGYTFTDNNMDWVRQAPGQGLEWMGDINTRSGGSIYNEEFQDRVTMTIDKSTGTAYMELSSLRSEDTAVYYCARRRSYGYYHDEWGEGTLVTVSSASTKGPSVFPLAPCSRSTSESTAALGCLVKDYFPEPVTVSWNSGALTSGVHTFPAVLQSSGLYSLSSVVTVPSSSLGTKTYTCNVDHKPSNTKVDKRVESKYGPPCPPCPAPEFLGGPSVFLFPPKPKDTLMISRTPEVTCVVVDVSQEDPEVQFNWYVDGVEVHNAKTKPREEQFNSTYRVVSVLTVLHQDWLNGKEYKCKVSNKGLPSSIEKTISKAKGQPREPQVYTLPPSQEEMTKNQVSLTCLVKGFYPSDIAVEWESNGQPENNYKTTPPVLDSDGSFFLYSRLTVDKSRWQEGNVFSCSVMHEALHNRFTQKSLSLSP
light: DIQMTQSPSSLSASVGDRVTITCKASRNIERNLAWYQQKPGQAPELLIYSASRKESGVPDRFSGSRYGTDFTLTISSLQPEDLATYYCQQYYSPPLTFGGGTKVEIKRTVAAPSVFIFPPSDEQLKSGTASVVCLLNNFYPREAKVQWKVDNALQSGNSQESVTEQDSKDSTYSLSSTLTLSKADYEKHKVYACEVTHQGLSSPVTKSFNRGEC
notes: Homomeric by-product in culture medium of Q153-G4d/J142-z72/L180-k; also called homomeric antibody J142-z72; homomeric antibody against FX
For B1, the binding result with protein A [1] was “no binding”.

B2: J300-z107/L210-k (antibody, human IgG4 S228P, kappa)
heavy: QVQLVQSGSELKKPGASVKVSCKASGYTFTDNNMDWVRQAPGQGLEWMGDINTRSGGSIYNEEFQDRVIMTVDKSTDTAYMELSSLRSEDTAVYHCARRKSYGYYLDEWGEGTLVTVSSASTKGPSVFPLAPCSRSTSESTAALGCLVKDYFPEPVTVSWNSGALTSGVHTFPAVLQSSGLYSLSSVVTVPSSSLGTQTYTCNVDHKPSNTKVDKRVESKYGPPCPPCPAPEFLGGPSVFLFPPKPKDTLMISRTPEVTCVVVDVSQEDPEVQFNWYVDGVEVHNAKTKPREEQYNSTYRVVSVLTVLHQDWLNGKEYKCKVSNKGLPSSIEKTISKAKGQPREPQVYTLPPSQEEMTKNQVSLTCLVKGFYPSDIAVEWESNGQPENNYKTTPPVLDSDGSFFLYSKLTVDKSRWQEGNVFSCSVMHEALHNRYTQESLSLSP
light: B1 light with L83I, Y92S
notes: also called homomeric antibody J300-z107; homomeric antibody against FX
Consider B2, for which the binding result with protein A [2] is “no binding”.

B3: J142-z73/L180-k (antibody, human IgG4 S228P, kappa)
heavy: B1 heavy with K438E
light: B1 light
notes: Homomeric by-product in culture medium of Q153-z7/J142-z73/L180-k; also called homomeric antibody J142-z73; homomeric antibody against FX
With B3, the binding result in the test with protein A [3] is recorded as “no binding”.

B4: homomeric antibody NTA4L-G3 (antibody, human IgG1, kappa, L234A L235A, N297A)
heavy: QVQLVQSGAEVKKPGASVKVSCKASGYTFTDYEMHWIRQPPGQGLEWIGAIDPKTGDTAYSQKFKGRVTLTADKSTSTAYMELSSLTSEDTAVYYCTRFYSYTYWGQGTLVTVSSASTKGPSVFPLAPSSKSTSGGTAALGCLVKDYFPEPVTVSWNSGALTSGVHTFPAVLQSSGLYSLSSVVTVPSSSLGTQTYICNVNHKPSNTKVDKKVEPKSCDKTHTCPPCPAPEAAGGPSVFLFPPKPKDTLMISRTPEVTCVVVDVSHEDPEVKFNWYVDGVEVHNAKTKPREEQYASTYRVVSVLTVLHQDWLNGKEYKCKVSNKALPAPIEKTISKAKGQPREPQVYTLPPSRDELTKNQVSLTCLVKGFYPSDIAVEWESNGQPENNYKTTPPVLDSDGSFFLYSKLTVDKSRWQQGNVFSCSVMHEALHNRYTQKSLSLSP
light: DVVMTQSPLSLPVTPGEPASISCRSSQSLVHSNRNTYLHWYLQKPGQSPQLLIYKVSNRFSGVPDRFSGSGSGTDFTLKISRVEAEDVGVYYCSQNTHVPPTFGQGTKLEIKRTVAAPSVFIFPPSDEQLKSGTASVVCLLNNFYPREAKVQWKVDNALQSGNSQESVTEQDSKDSTYSLSSTLTLSKADYEKHKVYACEVTHQGLSSPVTKSFNRGEC
notes: Homomeric by-product; also called NTL4L-G3
Consider B4, for which the binding result with protein A [4] was “no binding”.

B5: homomeric antibody having the H chain of the anti-GPC3 antibody (from no6) (antibody)
heavy: DVVMTQSPLSLPVTPGEPASISCRSSQSLVHSNRNTYLHWYLEKPGQSPQLLIYKVSNRFSGVPDRFSGSGSGTDFTLKISRVEAEDVGVYYCSQNTHVPPTFGQGTKLEIKSSASTKGPSVFPLAPSSKSTSGGTAALGCLVKDYFPEPVTVSWNSGALTSGVHTFPAVLQSSGLYSLSSVVTVPSSSLGTQTYICNVNHKPSNTKVDKKVEPKSCDKTHTCPPCPAPEAAGGPSVFLFPPKPKDTLMISRTPEVTCVVVDVSHEDPEVKFNWYVDGVEVHNAKTKPREEQYASTYRVVSVLTVLHQDWLNGKEYKCKVSNKALPAPIEKTISKAKGQPREPQVYTLPPSRKELTKNQVSLTCLVKGFYPSDIAVEWESNGQPENNYKTTPPVLDSDGSFFLYSKLTVDKSRWQQGNVFSCSVMHEALHNRYTQKSLSLSP
light: QVQLVQSGAEVKKPGASVKVSCKASGYTFTDYEMHWIRKPPGKGLEWIGAINPKTGDTAYSQKFKGRVTLTADKSTSTAYMELSSLTSEDTAVYYCTRFYSYTYWGRGTLVTVSSASVAAPSVFIFPPSDEQLKSGTASVVCLLNNFYPREAKVQWKVDNALQSGNSQESVTEQDSKDSTYSLSSTLTLSKADYEKHKVYACEVTHQGLSSPVTKSFNRGEC
notes: also called no6-Gh-H homomer
On to B5, for which the binding result with protein A [5] is recorded as “no binding”.
